Earlier results, collected in article PMC9843440.

Molecular target: IκBα (Homo sapiens) (UniProt P25963)
Sequence of UniProt P25963 (P25963 whole entry): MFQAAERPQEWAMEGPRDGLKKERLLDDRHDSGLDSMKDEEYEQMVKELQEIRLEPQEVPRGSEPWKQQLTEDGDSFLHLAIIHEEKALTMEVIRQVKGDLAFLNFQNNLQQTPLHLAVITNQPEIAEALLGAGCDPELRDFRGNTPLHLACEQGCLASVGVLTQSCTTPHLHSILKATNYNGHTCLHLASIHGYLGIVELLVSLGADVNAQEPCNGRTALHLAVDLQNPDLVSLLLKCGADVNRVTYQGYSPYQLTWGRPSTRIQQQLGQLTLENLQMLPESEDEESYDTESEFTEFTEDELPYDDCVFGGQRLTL

Substance: IKKβ (from UniProt O14920)
- Kd: 56 nM
